Measurements taken from patent US6984380B1, “Treatment of diseases involving faulty MHC class I antigen complex presentation” (priority 1991, dated 2006).
Where no end group is shown, it is not given here.

What was measured:
[1] = target: T1, H-2K^d class I molecule on NOD splenocytes (Mus musculus, UniProt P01902); assay type: cell-based
T1 construct: Female NOD splenocytes were cultured with a K^d allele-specific peptide in an attempt to load the empty peptide groove of this class I molecule; endogenous in cells; host or cells: primary splenocytes (macrophage/monocyte and lymphocyte gates) from female NOD mice and control B10.D2 (R103) mice
T1 sequence (P01902 22-368): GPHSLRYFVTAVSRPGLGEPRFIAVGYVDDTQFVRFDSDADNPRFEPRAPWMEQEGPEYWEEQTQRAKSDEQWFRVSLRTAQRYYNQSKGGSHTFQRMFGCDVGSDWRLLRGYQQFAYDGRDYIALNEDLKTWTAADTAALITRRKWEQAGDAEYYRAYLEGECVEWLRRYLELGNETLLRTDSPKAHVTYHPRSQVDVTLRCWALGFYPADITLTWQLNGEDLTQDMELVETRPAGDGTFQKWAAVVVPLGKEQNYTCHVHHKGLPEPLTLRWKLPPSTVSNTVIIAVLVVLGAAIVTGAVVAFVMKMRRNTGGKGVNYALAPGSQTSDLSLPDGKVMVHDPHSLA
T1 sequence (P01887 21-119 partner): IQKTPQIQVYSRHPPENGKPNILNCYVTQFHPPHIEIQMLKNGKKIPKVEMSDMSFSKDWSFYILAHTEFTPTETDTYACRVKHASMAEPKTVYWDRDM

## TYQRTRALV [K^d-specific peptide]
H-2K^d target cells
  susceptibility to CTL lysis after incubation with peptide: did restore susceptibility to CTLs
  susceptibility to CTL lysis after prior incubation with peptide: Neither the susceptibility of control BALB/c targets nor that of NOD male targets to CTL lysis was affected
[1]; control class I-identical B10.D2 (R103) splenocytes, peptide 480 μM, 5 hours at 37° C.
  mean fluorescence attributable to K^d: no change in mean fluorescence
[1]; female NOD mouse macrophages, peptide 480 μM, 5-hour incubation at 37° C.
  surface expression of K^d (mean fluorescence, FACS): stabilized the surface expression of K^d
[1]; female NOD splenocytes
  dose dependence of restoration and stabilization of K^d expression: dose dependent
  optimal peptide concentration for restoration and stabilization of K^d expression: greater than 240 μM
